Measurements: patent CN113121684A (TIANJIN JIKUN PHARMACEUTICAL TECH CO LTD, dated 2021)

Biological target: T1, 人源FSTL1蛋白 (卵泡抑素样蛋白1, Follistatin-like 1) (human, UniProt Q12841 21-308, limits assumed)
T1 construct: Soluble protein, used as analyte in SPR and as labelled ligand in MST; The construct is not described; also called 抗原; 靶点蛋白
T1 sequence (looked up): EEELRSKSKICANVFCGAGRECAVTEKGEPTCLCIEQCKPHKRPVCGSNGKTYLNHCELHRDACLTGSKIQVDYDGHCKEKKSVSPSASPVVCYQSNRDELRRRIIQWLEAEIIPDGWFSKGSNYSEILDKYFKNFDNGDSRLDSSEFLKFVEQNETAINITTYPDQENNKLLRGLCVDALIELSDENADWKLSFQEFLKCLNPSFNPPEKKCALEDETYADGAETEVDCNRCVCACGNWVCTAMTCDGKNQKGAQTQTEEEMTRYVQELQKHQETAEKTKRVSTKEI
Assay: SPR (Biacore T200), antibody amine-coupled on CM5 chip, FSTL1 protein injected

- Kd: 6.17 nM
B1: 人源FSTL1中和性抗体JK07 (全长IgG) (antibody, V domains shown)
VH: QVQLVQSGAEVKKPGSTVKVSCKSSEGTFNNYGISWIRQAPGQGLEWMGGVIPIIGIGNFPQKFQDRVTMTADKFTGTAYMELSSLRSEDTAVYYCARHLGGRNSYDVFDIWGQGTLVTVSS
VL: EIVLTQSPLSLPVTLGQTASISCRSSHSLVQSNGNTYLTWFQQRPGQSPRRLIYKVSSRDSGVPDRFSGSGSGTDFTLKISRVEAEDVGVYYCMQARQTPWTFGQGTKVEIKR
notes: also called JK07抗体
